Biological target: T1, Recombinant wild-type human ubiquitin (human, UniProt P0CG48 1-76)
T1 construct: ubiquitin, human, wild type; C-terminal residue G76; 15N labelled in some NMR experiments; In the rows of assays a1, a4 and a5 it is covalently linked by G76 to K117 of m1 (the conjugate is m3); also called free ubiquitin; mono-ubiquitin; source: recombinant, purified by anion exchange followed by gel filtration
Assay: NMR titration; 15N ubiquitin (50 μM) titrated with unlabeled JosK117-onlyW87R or its mono-ubiquitinated form to a maximum of 2 equivalents; 20 mM Na phosphate pH 6.5, 2 mM DTT, 25°C
Details: both partners purified

B1: W87R mutant of JosK117-only (domain or fragment, UniProt P54252 1-182, looked up)
chain: MESIFHERQEGSLCAQHCLNNLLQGEYFSPVELSSIAHQLDEEERMRMAEGGVTSEDYRTFLQQPSGNMDDSGFFSIQVISNALRVRGLELILFNSPEYQRLRIDPINERSFICNYKEHWFTVRRLGRQWFNLNSLLTGPELISDTYLALFLAQLQQEGYSIFVVRGDLPDCEADQLLQMIR
notes: ataxin-3, N-terminal Josephin domain, amino acids 1-182; K8, 85, 125, 128 and 166 mutated to arginine, and W87R (site 2); also called JosK117-onlyW87R; JosK117-only W87R; source: recombinant; mutant prepared with QuickChange Site-Directed Mutagenesis kit
binding result: binds

Reference: publication PMC4428445 (Frontiers in Molecular Biosciences, 2015)
